Source: article PMC7508794, “IRES-targeting small molecule inhibits enterovirus 71 replication via allosteric stabilization of a ternary complex”

Columns and labels:
[1] = target: A1-RRM1,2 (UP1) (UniProt P09651 1-196); test: ITC; no small molecule; ITC: 10 mM K2HPO4, 20 mM KCl, 0.5 mM EDTA, 4 mM BME, pH 6.5, 25 C; lysate pull-down: 5 mM HEPES pH 7.1, 40 mM KCl, 0.1 mM EDTA, 2 mM MgCl2, 2 mM DTT, 0.25 mg/ml heparin, 30 C; settings: protein: recombinant; tags: C-terminal His6; hairpin with 5-nt bulge and 7-nt apical loop
Sequence of A1-RRM1,2 (UP1) (P09651 1-196): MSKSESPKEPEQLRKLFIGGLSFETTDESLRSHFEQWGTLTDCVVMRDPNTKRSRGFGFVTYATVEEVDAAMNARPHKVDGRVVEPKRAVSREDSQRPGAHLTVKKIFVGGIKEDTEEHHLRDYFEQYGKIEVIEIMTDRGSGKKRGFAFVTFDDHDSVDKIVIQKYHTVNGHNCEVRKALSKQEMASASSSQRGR

[2] = target: T1, AUF1-RRM1,2 (UniProt Q14103-4 70-239); test: as above; settings: protein: recombinant; tags: N-terminal His6, cleaved with TEV; hairpin with 5-nt bulge and 7-nt apical loop
T1 sequence (Q14103 other isoform, or with tags, fused parts or gaps): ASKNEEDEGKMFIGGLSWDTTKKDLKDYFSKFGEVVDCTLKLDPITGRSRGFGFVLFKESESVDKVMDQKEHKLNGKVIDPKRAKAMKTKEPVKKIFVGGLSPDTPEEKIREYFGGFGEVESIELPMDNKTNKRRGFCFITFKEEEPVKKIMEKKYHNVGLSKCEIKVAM

[3] = target: T1, AUF1-RRM1,2; test: ITC; DMA-001, RNA:DMA 1:5; ITC: 10 mM K2HPO4, 20 mM KCl, 0.5 mM EDTA, 4 mM BME, pH 6.5, 25 C; lysate pull-down: 5 mM HEPES pH 7.1, 40 mM KCl, 0.1 mM EDTA, 2 mM MgCl2, 2 mM DTT, 0.25 mg/ml heparin, 30 C; settings: protein: recombinant; tags: N-terminal His6, cleaved with TEV; hairpin with 5-nt bulge and 7-nt apical loop
[4] = target: T1, AUF1-RRM1,2; test: ITC; DMA-135, RNA:DMA 1:5; ITC: 10 mM K2HPO4, 20 mM KCl, 0.5 mM EDTA, 4 mM BME, pH 6.5, 25 C; lysate pull-down: 5 mM HEPES pH 7.1, 40 mM KCl, 0.1 mM EDTA, 2 mM MgCl2, 2 mM DTT, 0.25 mg/ml heparin, 30 C; settings: protein: recombinant; tags: N-terminal His6, cleaved with TEV; hairpin with 5-nt bulge and 7-nt apical loop
[5] = target: T1, AUF1-RRM1,2; test: ITC; DMA-155, RNA:DMA 1:5; ITC: 10 mM K2HPO4, 20 mM KCl, 0.5 mM EDTA, 4 mM BME, pH 6.5, 25 C; lysate pull-down: 5 mM HEPES pH 7.1, 40 mM KCl, 0.1 mM EDTA, 2 mM MgCl2, 2 mM DTT, 0.25 mg/ml heparin, 30 C; settings: protein: recombinant; tags: N-terminal His6, cleaved with TEV; hairpin with 5-nt bulge and 7-nt apical loop
[6] = target: T1, AUF1-RRM1,2; test: ITC; DMA-135, RNA:DMA 1:1.6; ITC: 10 mM K2HPO4, 20 mM KCl, 0.5 mM EDTA, 4 mM BME, pH 6.5, 25 C; lysate pull-down: 5 mM HEPES pH 7.1, 40 mM KCl, 0.1 mM EDTA, 2 mM MgCl2, 2 mM DTT, 0.25 mg/ml heparin, 30 C; settings: protein: recombinant; tags: N-terminal His6, cleaved with TEV; hairpin with 5-nt bulge and 7-nt apical loop
[7] = target: T1, AUF1-RRM1,2; test: ITC; DMA-135, RNA:DMA 1:3.3; ITC: 10 mM K2HPO4, 20 mM KCl, 0.5 mM EDTA, 4 mM BME, pH 6.5, 25 C; lysate pull-down: 5 mM HEPES pH 7.1, 40 mM KCl, 0.1 mM EDTA, 2 mM MgCl2, 2 mM DTT, 0.25 mg/ml heparin, 30 C; settings: protein: recombinant; tags: N-terminal His6, cleaved with TEV; hairpin with 5-nt bulge and 7-nt apical loop

B1: EV71 SLII (SLII2231) (structured_RNA)
RNA: GGAUCAAUAGCAGGUGUGGCACACCAGUCAUACCUUGAUCC
With B1 the binding result [1] was “binds”, the Kd [2] was 336 ± 44 nM and the Kd [3] was 306 ± 4 nM. It also gave a Kd [4] of 134 ± 7 nM, a Kd [5] of 390 ± 7 nM and a Kd [6] of 240 ± 72 nM. The Kd [7] was 140 ± 2 nM.
